Reference: patent US20220089702A1 (published 2022)

Target: recombinant human tau
Assay: SPR

Kd: 5.77 nM
B1: 7G6 (antibody, V domains shown)
VH: EVQLQQSGAELVRPGALVKLSCKASGFNIKDYYIHWVKQRPEQGLEWIGWIDPENGETVYDPKFQGKASITSDTSSNTAYLQLRSLTSEDTAVYYSTSLDFWGQGTSVTVSS
VL: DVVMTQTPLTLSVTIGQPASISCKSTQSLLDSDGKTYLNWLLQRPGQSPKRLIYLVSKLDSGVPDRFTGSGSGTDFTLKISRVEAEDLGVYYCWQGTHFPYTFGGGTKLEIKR
